We go through one protein from publication PMC4560963 (Molecular cell, 2015).

Usually stoichiometry N stands for the number of molecules, sites or subunits per partner or assembly.

The data set concerns the molecule itself. The data set can be described thus: native gel or EMSA. For orientation: In EMSA bound probe runs differently from free probe, usually more slowly.

B1: recombinant His6-TAF11 (natural protein)
chain: not shown
As for B1, the “stoichiometry N” value worked out at 4.
